The values below come from the RNAGym collection of RNA variant scans (doi:10.1093/molbev/msab373).

B1: Azoarcus group I ribozyme (parent)
chain: GUGCCUUGCGCCGGGAAACCACGCAAGGGAUGGUGUCAAAUUCGGCGAAACCUAAGCGCCCGCCCGGGCGUAUGGCAACGCCGAGCCAAGCUUCGGCGCCUGCGCCGAUGAAGGUGUAGAGACUAGACGGCACCCACCUAAGGCAAACGCUAUGGUGAAGGCAUAGUCCAGGGAGUGGCGAAAGUCACACAAACCGG

In the data set the parent is B1. Description: reverse-splicing fitness (ratio to wild type); higher = more active; in vitro selection; Mg2+ level not given. Put shortly: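 An in vitro group I ribozyme library with randomized positions was T7-transcribed and gel-purified. In triplicate, 10 pmol RNA in EPPS pH 7.5 was reacted with 50 pmoles of a 30-nt RNA substrate for 1 h at 37 °C across several added MgCl2 levels (1–48 mM), then stopped with EDTA. Products were reverse transcribed from a substrate-complementary primer, PCR-amplified and sequenced (HiSeq 4000). Fitness is a variant's read proportion after selection over that before, normalised to wild type.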
For the variant C82A A111C A120G A145G C150G C169U U176G, the reverse-splicing fitness worked out at 0.00784.
With C82A A111C A120G A145G C150G C169U U176A, the reverse-splicing fitness was 0.0114.
The value for C82A A111C A120G A145G C150G C169U U176C was 0.0123.
Then C82A A111C A120G A145G C150A C169U U176G, with 0.00632; and C82A A111C A120G A145G C150A C169U U176A, with 0.0154; and C82A A111C A120G A145G C150A C169U U176C, with 0.0139.
As to C82A A111C A120G A145U C150A C169A U176A, the reverse-splicing fitness amounted to 0.0115.
Consider C82A A111C A120G A145U C150A C169A U176C, for which the reverse-splicing fitness is 0.0113.
Consider C82A A111C A120G A145U C150A C169A U176G, for which the reverse-splicing fitness was found to be 0.00621.
Take C82A A111C A120C A145U C150A C169G U176A: the reverse-splicing fitness worked out at 0.0154.
In the case of C82A A111C A120C A145U C150A C169G U176G, the reverse-splicing fitness was 0.00745.
As to C82A A111C A120C A145U C150A C169G U176C, the reverse-splicing fitness stood at 0.0188.
Then C82A A111C A120C A145U C150A, with 0.00979; and C82A A111C A120C A145U C150G, with 0.00822.
On to C82A A111C A120C A145U C150U, for which the reverse-splicing fitness turned out to be 0.0202.
As for C82A A111C A120C A145G C169A U176A, the reverse-splicing fitness was 0.0249.
As for C82A A111C A120C A145G C169A U176G, the reverse-splicing fitness amounted to 0.00684.
As to C82A A111C A120C A145G C169A U176C, the reverse-splicing fitness stood at 0.0288.
Take C82A A111C A120C C150G C169U U176G: the reverse-splicing fitness is 0.00771.
Regarding C82A A111C A120C C150G C169U U176A, the reverse-splicing fitness is 0.00611.
The value for C82A A111C A120C C150G C169U U176C was 0.0102; that for C82A A111C A120G A145G C150U C169G U176A was 0.0123; that for C82A A111C A120G A145G C150U C169G U176G was 0.00582.
For C82A A111C A120G A145G C150U C169G U176C, the reverse-splicing fitness is 0.0182.
The value for C82A A111C A120G A145G C169A U176A was 0.0215.
The value for C82A A111C A120G A145G C169A U176G was 0.00509; that for C82A A111C A120G A145G C169A U176C was 0.0288; that for C82A A111C A120G A145C C150G C169G was 0.00683.
With C82A A111C A120G A145C C150G C169A, the reverse-splicing fitness was found to be 0.00757.
The value for C82A A111C A120G A145C C150G C169U was 0.00668; that for C82A A111C A120C C150U C169A U176A was 0.0146; that for C82A A111C A120C C150U C169A U176C was 0.0126.
Take C82A A111C A120C C150U C169A U176G: the reverse-splicing fitness turned out to be 0.00849.
On to C82A A111C A120C A145G C150A C169U U176C, for which the reverse-splicing fitness turned out to be 0.0136.
With C82A A111C A120C A145G C150A C169U U176G, the reverse-splicing fitness is 0.00795.
Then C82A A111C A120C A145G C150A C169U U176A, with 0.0154; and C82A A111C A120C A145G C150G C169A U176C, with 0.0121.
Consider C82A A111C A120C A145G C150G C169A U176A, for which the reverse-splicing fitness was 0.0153.
For the variant C82A A111C A120C A145G C150G C169A U176G, the reverse-splicing fitness was 0.00798.
Then C82A A111C A120C C169G, with 0.0083.
On to C82A A111C A120C C169A, for which the reverse-splicing fitness was determined as 0.00922.
In the case of C82A A111C A120C C169U, the reverse-splicing fitness is 0.0124.
The value for C82A A111C A120G A145G C150U C169A was 0.0111; that for C82A A111C A120G A145G C150U C169G was 0.0106.
In the case of C82A A111C A120G A145G C150U C169U, the reverse-splicing fitness was found to be 0.00986.
For the variant C82A A111C A120C A145G C150A C169G U176C, the reverse-splicing fitness was determined as 0.0238.
For the variant C82A A111C A120C A145G C150A C169G U176A, the reverse-splicing fitness amounted to 0.0172.
As for C82A A111C A120C A145G C150A C169G U176G, the reverse-splicing fitness was 0.00821.
In the case of C82A A111C A120G A145G C150A U176A, the reverse-splicing fitness was found to be 0.00969.
For the variant C82A A111C A120G A145G C150A U176C, the reverse-splicing fitness came out at 0.0185.
As to C82A A111C A120G A145G C150A U176G, the reverse-splicing fitness was 0.00772.
Regarding C82A A111C A120C C169U U176G, the reverse-splicing fitness worked out at 0.00697.
With C82A A111C A120C C169U U176C, the reverse-splicing fitness was found to be 0.0149.
On to C82A A111C A120C C169U U176A, for which the reverse-splicing fitness is 0.0152.
On to C82A A111C A120C C150G C169G, for which the reverse-splicing fitness came out at 0.00682.
Then C82A A111C A120C C150G C169A, with 0.00831; and C82A A111C A120C C150G C169U, with 0.0115.
For C82A A111C A120G A145G C150U, the reverse-splicing fitness amounted to 0.0128.
Regarding C82A A111C A120G A145G C150A, the reverse-splicing fitness turned out to be 0.00888.
The value for C82A A111C A120G A145G C150G was 0.00731; that for C82A A111C A120G A145C C150U C169U U176G was 0.00482.
On to C82A A111C A120G A145C C150U C169U U176A, for which the reverse-splicing fitness was found to be 0.0143.
For C82A A111C A120G A145C C150U C169U U176C, the reverse-splicing fitness turned out to be 0.00813.
The value for C82A A111C A120C A145G C169U U176C was 0.0138.
The value for C82A A111C A120C A145G C169U U176A was 0.0165; that for C82A A111C A120C A145G C169U U176G was 0.00652.
Regarding C82A A111C A120G A145G C150U C169A U176A, the reverse-splicing fitness amounted to 0.016.
On to C82A A111C A120G A145G C150U C169A U176C, for which the reverse-splicing fitness was found to be 0.0149.
In the case of C82A A111C A120G A145G C150U C169A U176G, the reverse-splicing fitness turned out to be 0.00613.
As for C82A A111C A120C A145G C150G C169U U176A, the reverse-splicing fitness turned out to be 0.0109.
In the case of C82A A111C A120C A145G C150G C169U U176G, the reverse-splicing fitness was 0.00808.
Take C82A A111C A120C A145G C150G C169U U176C: the reverse-splicing fitness turned out to be 0.0109.
Turning to C82A A111C A120G A145G C150A C169A U176A, the reverse-splicing fitness was 0.0181.
Regarding C82A A111C A120G A145G C150A C169A U176C, the reverse-splicing fitness amounted to 0.0231.
C82A A111C A120G A145G C150A C169A U176G: the reverse-splicing fitness is 0.00667.
Then C82A A111C A120C A145C C169U U176G, with 0.00595.
In the case of C82A A111C A120C A145C C169U U176A, the reverse-splicing fitness worked out at 0.0123.
Take C82A A111C A120C A145C C169U U176C: the reverse-splicing fitness was 0.0141.
Take C82A A111C A120C A145G C150U C169A U176A: the reverse-splicing fitness was determined as 0.0159.
As for C82A A111C A120C A145G C150U C169A U176G, the reverse-splicing fitness amounted to 0.00826.
The value for C82A A111C A120C A145G C150U C169A U176C was 0.0162.
Regarding C82A A111C A120G A145C C150G, the reverse-splicing fitness came out at 0.00724.
Then C82A A111C A120G A145C C150A, with 0.00818; and C82A A111C A120G A145C C150U, with 0.00926.
